B1: LINE1-full (parent)
chain: UACGUAGGUGGUUUUCCCCUGAUAGUGCUAAGGGGGCCUGGAAGUUUGGACUGGGCAGAGCUCAACACAGCGUGGCAAAGUGGCUGUGGCUAGACUGCCUCUCUGGAUUCCUCGUCACUCAGCAGGGCAUCUCUGAGAGAAAUGCC

Variants of: B1
Assay: self-cleavage, relative activity (ratio to wild type); higher = more cleavage; in vitro, sequencing; the parent is a self-cleaving ribozyme

Variant | self-cleavage
UACGUAGGUGGUUUUCCCCUGAUAGUGCUAAGGGGGCCUGGAAGUUUGGACCGGGCAGAGCUCAACACAGCGUGGCAAAGUGGCUGUGGCUAGACUGCCUCUCUGGAUUCCUCGCCACUCAGCAGGGCAUCUCUGAGAGAAAUGCC [U52C U115C] | 1.64
UACGUAGGUGGUUUUCCCCUGAUAGUGCUAAGGGGGCCUGGAAGUUUGGACGGGGCAGAGCUCGACACAGCGUGGCAAAGUGGCUGUGGCUAGACUGCCUCUCUGGAUUCCUCGUCACUCAGCAGGGCAUCUCUGAGAGAAAUGCC [U52G A64G] | 0.32
UACGUAGGUGGUUUUCCCCUGAUAGUGCUAAGGGGGCCUGGAAGUUUGGACGGGGCAGAGCUCUACACAGCGUGGCAAAGUGGCUGUGGCUAGACUGCCUCUCUGGAUUCCUCGUCACUCAGCAGGGCAUCUCUGAGAGAAAUGCC [U52G A64U] | 0.7
UACGUAGGUGGUUUUCCCCUGAUAGUGCUAAGGGGGCCUGGAAGUUUGGACCGGGCAGAGCUCAACACAGCGUGGCAAAGUGGCUGUGGCUAGACUGCCUCUCUGGAUUCCACGUCACUCAGCAGGGCAUCUCUGAGAGAAAUGCC [U52C U112A] | 0.99
UACGUAGGUGGUUUUCCCCUGAUAGUGCUAAGGGGGCCUGGAAGUUUGGACCGGGCAGAGCUCAACACAGCGUGGCAAAGUGGCUGUGGCUAGACCGCCUCUCUGGAUUCCUCGUCACUCAGCAGGGCAUCUCUGAGAGAAAUGCC [U52C U96C] | 0.02
UACGUAGGUGGUUUUCCCCUGAUAGUGCUAAGGGGGCCUGGAAGUUUGGACCGGGCAGAGCUCAACACAGCGUGGCAAAGUGGCUGUGGCUAGACUGCCUCUCUGGAUUCCUCGUCACUCAGCAGGGCAUCUCUGAGAGAAACGCC [U52C U143C] | 1.67
UACGUAGGUGGUUUUCCCCUGAUAGUGCUAAGGGGGCCUGGAAGUUUGGACCGGGCAGAGCUCAACACAGCGUGGCAAAGUGGCUGUGGCUAGACUGCCUCUCUGGAUUCCUCGUCACUCAGCAGGGCAUCUCUGAGAGAAAGGCC [U52C U143G] | 1.6
UACGUAGGUGGUUUUCCCCUGAUAGUGCUAAGGGGGCCUGGAAGUUUGGACCGGGCAGAGCUCAACACAGCGUGGCAAAGUGGCUGUGGCGAGACUGCCUCUCUGGAUUCCUCGUCACUCAGCAGGGCAUCUCUGAGAGAAAUGCC [U52C U91G] | 0.17
UACGUAGGUGGUUUUCCCCUGAUAGUGCUAAGGGGGCCUGGAAGUUUGGACCGGGCAGAGCUCAACACAGCGUGGCAAAGUGGCUGUGGCUAGACUGCCUCUCUGGAUUCCUCGUCACUCAGCAGAGCAUCUCUGAGAGAAAUGCC [U52C G126A] | 1.18
UACGUAGGUGGUUUUCCCCUGAUAGUGCUAAGGGGGCCUGGAAGUUUGGACCGGGCAGAGCUCAACACAGCGUGGCAAAGUGGCUGUGGCUAGACUGCCUCUCUGGAUUCCUCGUCACUCAGCAGUGCAUCUCUGAGAGAAAUGCC [U52C G126U] | 1.31
UACGUAGGUGGUUUUCCCCUGAUAGUGCUAAGGGGGCCUGGAAGUUUGGACCGGGCAGAGCUCAACACAGCGAGGCAAAGUGGCUGUGGCUAGACUGCCUCUCUGGAUUCCUCGUCACUCAGCAGGGCAUCUCUGAGAGAAAUGCC [U52C U73A] | 1.21
UACGUAGGUGGUUUUCCCCUGAUAGUGCUAAGGGGGCCUGGAAGUUUGGACCGGGCAGAGCUCAACACAGCGCGGCAAAGUGGCUGUGGCUAGACUGCCUCUCUGGAUUCCUCGUCACUCAGCAGGGCAUCUCUGAGAGAAAUGCC [U52C U73C] | 0.54
UACGUAGGUGGUUUUCCCCUGAUAGUGCUAAGGGGGCCUGGAAGUUUGGACCGGGCAGAGCUCAACACAGCGUGGCAAAGUGGCUGUGGCUAGACUGCCUCUCUGGAUUCCUCGUCACUCAGCAGGACAUCUCUGAGAGAAAUGCC [U52C G127A] | 0.93
UACGUAGGUGGUUUUCCCCUGAUAGUGCUAAGGGGGCCUGGAAGUUUGGACGGGGCAGAGCUCAACACAGCGUGGCAAAGUGGCUGUGGCUAGACUGCCUCUCUGGAUUGCUCGUCACUCAGCAGGGCAUCUCUGAGAGAAAUGCC [U52G C110G] | 1.31
UACGUAGGUGGUUUUCCCCUGAUAGUGCUAAGGGGGCCUGGAAGUUUGGACGGGGCAGAGCUCAACACAGCGUGGCAAAGUGGCUGUGGCUAGACUGCCUUUCUGGAUUCCUCGUCACUCAGCAGGGCAUCUCUGAGAGAAAUGCC [U52G C101U] | 1.55
UACGUAGGUGGUUUUCCCCUGAUAGUGCUAAGGGGGCCUGGAAGUUUGGACGGGGCAGAGCUCAACACAGCGUGGCAAAGUGGCUGCGGCUAGACUGCCUCUCUGGAUUCCUCGUCACUCAGCAGGGCAUCUCUGAGAGAAAUGCC [U52G U87C] | 0.69
UACGUAGGUGGUUUUCCCCUGAUAGUGCUAAGGGGGCCUGGAAGUUUGGACCGGGCAGAGCUCAACACAGCGUGGCAAAGUGGCUGUGGCUAGACUGCCUCUCUGGAUUCCUCGUCACCCAGCAGGGCAUCUCUGAGAGAAAUGCC [U52C U119C] | 1.86
UACGUAGGUGGUUUUCCCCUGAUAGUGCUAAGGGGGCCUGGAAGUUUGGACCGGGCAGAGCUCAACACAGCGUGGCAAAGUGGCUGUGGCUAGACUGCCCCUCUGGAUUCCUCGUCACUCAGCAGGGCAUCUCUGAGAGAAAUGCC [U52C U100C] | 2.25
UACGUAGGUGGUUUUCCCCUGAUAGUGCUAAGGGGGCCUGGAAGUUUGGACCGGGCAGAGCUCAACACAGCGUGGCAAAGUGGCUGUGGCUAGACUGCCACUCUGGAUUCCUCGUCACUCAGCAGGGCAUCUCUGAGAGAAAUGCC [U52C U100A] | 0.63
UACGUAGGUGGUUUUCCCCUGAUAGUGCUAAGGGGGCCUGGAAGUUUGGACCGGGCAGAGCUCAACACAGCGUGGCAAAGUGGCUGUGGCUAGACUGCCUCUCUGGAUUCCUCGUCACUCAGCAGGGCAUCUCUGAAAGAAAUGCC [U52C G137A] | 0.89

Variant | self-cleavage
UACGUAGGUGGUUUUCCCCUGAUAGUGCUAAGGGGGCCUGGAAGUUUGGACGGGGCAGAGCUCAACACAGCGUGGCAAAGUGGCUGUGGCUAGACUGCCUCUCUGGAUUCCUCGUCACUCAGCAGGGCAUCUCUGAGAGAAGUGCC [U52G A142G] | 0.51
UACGUAGGUGGUUUUCCCCUGAUAGUGCUAAGGGGGCCUGGAAGUUUGGACCGGGCAGAGCUCAACACAGCGUGGCAAAGUGGCUGUGGCUAGACUGCCUCUCUGGACUCCUCGUCACUCAGCAGGGCAUCUCUGAGAGAAAUGCC [U52C U108C] | 1.68
UACGUAGGUGGUUUUCCCCUGAUAGUGCUAAGGGGGCCUGGAAGUUUGGACCGGGCAGAGCGCAACACAGCGUGGCAAAGUGGCUGUGGCUAGACUGCCUCUCUGGAUUCCUCGUCACUCAGCAGGGCAUCUCUGAGAGAAAUGCC [U52C U62G] | 0
UACGUAGGUGGUUUUCCCCUGAUAGUGCUAAGGGGGCCUGGAAGUUUGGACGGGGCAGAGCUCAACACAGCGUGGCAAAGUGGCUGUGGCUAGACUGCCUCUCUGGAUUCCUCGUCACUCAGCGGGGCAUCUCUGAGAGAAAUGCC [U52G A124G] | 1.57
UACGUAGGUGGUUUUCCCCUGAUAGUGCUAAGGGGGCCUGGAAGUUUGGACGGGGCAGAGCUCAACGCAGCGUGGCAAAGUGGCUGUGGCUAGACUGCCUCUCUGGAUUCCUCGUCACUCAGCAGGGCAUCUCUGAGAGAAAUGCC [U52G A67G] | 0.64
UACGUAGGUGGUUUUCCCCUGAUAGUGCUAAGGGGGCCUGGAAGUUUGGACGGGGCAGAGCCCAACACAGCGUGGCAAAGUGGCUGUGGCUAGACUGCCUCUCUGGAUUCCUCGUCACUCAGCAGGGCAUCUCUGAGAGAAAUGCC [U52G U62C] | 0.09
UACGUAGGUGGUUUUCCCCUGAUAGUGCUAAGGGGGCCUGGAAGUUUGGACGGGGCAGAGCUCAACACAGCGUGGCAAAGUGGCUGUGGCUAGACUGCCUCUCUGGAUUCCUCGUCACUCAGCAGGGCAUCUCUGAGAGAGAUGCC [U52G A141G] | 1.72
UACGUAGGUGGUUUUCCCCUGAUAGUGCUAAGGGGGCCUGGAAGUUUGGACCGGGCAGAGCUCAACACAGCGUGGCAAAGUGGCUGUGGCUAGACUGCCUCUCUGGAUUCCUCGUCACUCAGCAGGGCAUCACUGAGAGAAAUGCC [U52C U132A] | 1.88
UACGUAGGUGGUUUUCCCCUGAUAGUGCUAAGGGGGCCUGGAAGUUUGGACCGGGCAGAGCUCAACACAGCGUGGCAAAGUGGCUGUGGCUAGACUGCCUCUCUGGAUUCCUCGUCACUCAGCAGGGCAUCGCUGAGAGAAAUGCC [U52C U132G] | 1.93
UACGUAGGUGGUUUUCCCCUGAUAGUGCUAAGGGGGCCUGGAAGUUUGGACCGGGCAGAGCUCAACACAGCGUGGCAAAGUGGCUGUGGCUAGACUGCCUCUCUGGAUUCCUCGUCACUCAGCAGGGCAUCUCUGAGAGAAAUACC [U52C G144A] | 1.73
UACGUAGGUGGUUUUCCCCUGAUAGUGCUAAGGGGGCCUGGAAGUUUGGACCGGGCAGAGCUCAACACAGCGUGGCAAAGUGGCUGGGGCUAGACUGCCUCUCUGGAUUCCUCGUCACUCAGCAGGGCAUCUCUGAGAGAAAUGCC [U52C U87G] | 0
UACGUAGGUGGUUUUCCCCUGAUAGUGCUAAGGGGGCCUGGAAGUUUGGACCGGGCAGAGCUCAACACAGCGUGGCAAAGUGGCUGAGGCUAGACUGCCUCUCUGGAUUCCUCGUCACUCAGCAGGGCAUCUCUGAGAGAAAUGCC [U52C U87A] | 0.08
UACGUAGGUGGUUUUCCCCUGAUAGUGCUAAGGGGGCCUGGAAGUUUGGACGGGGCAAAGCUCAACACAGCGUGGCAAAGUGGCUGUGGCUAGACUGCCUCUCUGGAUUCCUCGUCACUCAGCAGGGCAUCUCUGAGAGAAAUGCC [U52G G58A] | 0.09
UACGUAGGUGGUUUUCCCCUGAUAGUGCUAAGGGGGCCUGGAAGUUUGGACGGGGCAGAGCUCAACACAGCGUGGCAAAGUGGCUGUGGCUAGACUGCCUCUCUGGAUUCCUCGUCACUCAGCAGGGCAUCUCUGAGAGGAAUGCC [U52G A140G] | 1.81
UACGUAGGUGGUUUUCCCCUGAUAGUGCUAAGGGGGCCUGGAAGUUUGGACGGGGCAGAGCUCAACACAGCGUGGCAAAGUGGCUGUGGCCAGACUGCCUCUCUGGAUUCCUCGUCACUCAGCAGGGCAUCUCUGAGAGAAAUGCC [U52G U91C] | 1.23
UACGUAGGUGGUUUUCCCCUGAUAGUGCUAAGGGGGCCUGGAAGUUUGGACGGGGCAGAGCUCAACACAGCAUGGCAAAGUGGCUGUGGCUAGACUGCCUCUCUGGAUUCCUCGUCACUCAGCAGGGCAUCUCUGAGAGAAAUGCC [U52G G72A] | 0
UACGUAGGUGGUUUUCCCCUGAUAGUGCUAAGGGGGCCUGGAAGUUUGGACGGGGCAGAGCUCAACACAGCGUGGCAAAGUGGCAGUGGCUAGACUGCCUCUCUGGAUUCCUCGUCACUCAGCAGGGCAUCUCUGAGAGAAAUGCC [U52G U85A] | 0.17
UACGUAGGUGGUUUUCCCCUGAUAGUGCUAAGGGGGCCUGGAAGUUUGGACCGGGCAGAGCUCAACACAGCGUGGCAAAGUGGCUGUGGCUAGACUGCCUCUCUGGAUUCCUCGUCACUCAGCAGGGCAUCUCAGAGAGAAAUGCC [U52C U134A] | 1.07
UACGUAGGUGGUUUUCCCCUGAUAGUGCUAAGGGGGCCUGGAAGUUUGGACGGGGCAGAGCUCAACACAGCGUGGCAAAGUGGCUGUGGCUAGACUGCCACUCUGGAUUCCUCGUCACUCAGCAGGGCAUCUCUGAGAGAAAUGCC [U52G U100A] | 0.43

— the RNAGym collection of RNA variant scans (doi:10.7554/elife.90254)
